{
  "source": "patent US8637043B2",
  "about": "“Compositions useful as ligands for the formyl peptide receptor like 1 receptor and methods of use thereof” (Chemocentryx, Inc., priority 2001, dated 2014)",
  "key": {"[1]": {"tested_on": "dendritic cells", "test": "Dendritic cell infiltration after intradermal injection in mice (anti-DEC-205 staining)", "format": "in vivo", "set-up": "key to Dendritic cell infiltration Score / Infiltration Score: 0 = none, 1 = slight, 2 = mild, 3 = moderate, 4 = severe", "excerpt": "The following chemokines were obtained from R&D Systems (Minneapolis, Minn.): vMCK-2, mC10, and GM-CSF. The following peptides were synthesized at Phoenix Pharmaceuticals (San Carlos, Calif.): SHAAYtide (SEQ ID NO:6), several […] MODIFIED peptides of SHAAGtide variant (SEQ ID NO:) (i.e. cyclized using the MPR-Cys linked cyclization), control peptide (SEQ ID NO:33, […]Gin Pro Gly lie Lys Arg Arg Trp Leu Met), randomly conjugated to OVA in either a 1:1 or 1:4 ratio (by MBS coupling method), and conjugated to OVA at the C-terminus (C-term, made by the addition of a cysteine), and SHAAGtide variant (SEQ ID NO:3). In three separate experiments, chemokines or peptides (2 μg or 20 μg in PBS) were injected intradermally into BALB/c or C57BI/6 mice (Jackson Laboratory; Bar Harbor, Me.). In each experiment, one mouse received an injection of PBS only as a negative control. At various times after injection, the mice were euthanized, and the area around the injection site was excised and subjected to immunohistology. Frozen sections were stained with anti-DEC-205 antibody (Bio-Whittaker Molecular Applications; Rockland, Me.) that recognizes a dendritic cell-specific molecule (Kraal et al., 1986). A relative staining number on a scale of […] was assigned to each section (0, none; 1, slight; 2, mild; 3, moderate; 4, severe)."}, "[2]": {"tested_on": "mononuclear cells", "test": "Mononuclear cell infiltration into the dermis after intradermal injection", "format": "in vivo, Rhesus macaques", "experimental": "Different amounts (8, 20, or 60 μg in 100 μl PBS) of different polypeptides (see Table 18) were injected intradermally in Rhesus macaques under anesthesia. Twenty-four and 48 hours later, 6 mm skin punch biopsies were taken using aseptic technique and then bisected. One portion of the biopsy was embedded in OCT compound, flash frozen in liquid nitrogen and stored at −70° C. The other portion was immersed in formalin and embedded in paraffin wax; subsequently, sections cut on a microtome were stained with hematoxylin and eosin and then microscopically examined for cell infiltration into the dermis (Table 18). As a negative control, monkeys were injected with PBS lacking any polypeptides.\nMononuclear cell infiltration was scored on a scale of 0 to 5:0, very mild perivascular mononuclear inflammatory infiltration throughout the dermis; 1, a mild perivascular mononuclear inflammatory infiltrate seen throughout the dermis; 2, a mild/moderate perivascular mononuclear inflammatory infiltrate seen throughout the dermis; 3, a moderate perivascular mononuclear inflammatory infiltrate seen throughout the dermis; 4, an extensive perivascular mononuclear inflammatory infiltrate seen throughout the dermis; 5, a florid perivascular mononuclear inflammatory infiltrate seen throughout the dermis. intermediate scores are indicates, e.g., “⅔” represents a score between 2 and 3."}, "[3]": {"tested_on": "infiltrating cells", "test": "Immunohistochemistry of infiltrating cells in injected skin samples", "format": "in vivo, Rhesus macaques", "conditions": "injected skin samples of Example 14", "experimental": "To better define the identity of the infiltrating cells seen in Example 14 (Table 18), the same samples were analyzed by immunohistochemistry using antibodies specific for different cell types. These antibodies included: CD68 (expressed on macrophages, neutrophils and dendritic cells), MHC II (antigen-presenting cells, e.g. macrophages and dendritic cells), HAM-56 (macrophages), fascin (dendritic cells, endothelial cells and epithelial cells), elastase (neutrophils), cytokeratin (epithelial cells), CD3 (T cells), CD20 (B cells), and CD1a (Langerhans cells)."}},
  "note": "Several values for one entry are separate records, joined by “and”; a condition that tells them apart may be missing. Identical values can stand only once.",
  "data": [
    {"molecule": "mC10: chemokine obtained from R&D Systems (protein, UniProt P27784 22-116, looked up) C-C motif chemokine 6: GLIQEMEKEDRRYNPPIIHQGFQDTSSDCCFSYATQIPCKRFIYYFPTSGGCIKPGIIFISRRGTQVCADPSDRRVQRCLSTLKQGPRSGNKVIA", "values": [
      {"measurement": "Dendritic cell infiltration Score", "setting": "[1]; BALBc mice, 2 μg, 6 hours", "value": 2},
      {"measurement": "Dendritic cell infiltration Score", "setting": "[1]; BALBc mice, 2 μg, 30 hours", "value": "3 and 2"},
      {"measurement": "Dendritic cell infiltration Score", "setting": "[1]; BALBc mice, 20 μg, 6 hours", "value": 2},
      {"measurement": "Dendritic cell infiltration Score", "setting": "[1]; C57B1/6 mice, 2 μg dose, 6 hours, 0 none, 1 slight, 2 mild, 3 moderate, 4 severe, one animal per line", "value": "1 (2×) and 2"},
      {"measurement": "Dendritic cell infiltration Score", "setting": "[1]; C57B1/6 mice, 2 μg dose, 30 hours", "value": "2 and 1"},
      {"measurement": "Dendritic cell infiltration Score", "setting": "[1]; C57B1/6 mice, 2 μg dose, 51 hours", "value": 0},
      {"measurement": "infiltration of DEC-205-labeled cells", "setting": "[1]; summary of Tables 15, 16 and 17", "value": "excellent infiltration"},
      {"measurement": "Mononuclear cell infiltration score", "setting": "[2]; 8 μg, 24 hours", "value": 1},
      {"measurement": "Mononuclear cell infiltration score", "setting": "[2]; 8 μg, 48 hours", "value": 0},
      {"measurement": "Mononuclear cell infiltration score", "setting": "[2]; 20 μg, 24 hours", "value": 0},
      {"measurement": "Mononuclear cell infiltration score", "setting": "[2]; 20 μg, 48 hours", "value": 0},
      {"measurement": "Mononuclear cell infiltration score", "setting": "[2]; 60 μg intradermally, 24 hours, scale 0 (very mild) to 5 (florid)", "value": 0},
      {"measurement": "Mononuclear cell infiltration score", "setting": "[2]; 60 μg, 48 hours", "value": 0},
      {"measurement": "cell infiltration, in words", "setting": "[2]; summary of Table 18", "value": "little to no infiltration"},
      {"measurement": "identity of infiltrating cells", "setting": "[3]", "value": "primarily antigen-presenting cells, including macrophages and dendritic cells, but few neutrophils"}
    ]}
  ]
}
